pKd: −log10 of the molar value.
Target: human RPN2, wild type, full length (human) (UniProt Q99460)
Assay: MST

Chain of human RPN2, wild type, full length (human) (Q99460 whole entry): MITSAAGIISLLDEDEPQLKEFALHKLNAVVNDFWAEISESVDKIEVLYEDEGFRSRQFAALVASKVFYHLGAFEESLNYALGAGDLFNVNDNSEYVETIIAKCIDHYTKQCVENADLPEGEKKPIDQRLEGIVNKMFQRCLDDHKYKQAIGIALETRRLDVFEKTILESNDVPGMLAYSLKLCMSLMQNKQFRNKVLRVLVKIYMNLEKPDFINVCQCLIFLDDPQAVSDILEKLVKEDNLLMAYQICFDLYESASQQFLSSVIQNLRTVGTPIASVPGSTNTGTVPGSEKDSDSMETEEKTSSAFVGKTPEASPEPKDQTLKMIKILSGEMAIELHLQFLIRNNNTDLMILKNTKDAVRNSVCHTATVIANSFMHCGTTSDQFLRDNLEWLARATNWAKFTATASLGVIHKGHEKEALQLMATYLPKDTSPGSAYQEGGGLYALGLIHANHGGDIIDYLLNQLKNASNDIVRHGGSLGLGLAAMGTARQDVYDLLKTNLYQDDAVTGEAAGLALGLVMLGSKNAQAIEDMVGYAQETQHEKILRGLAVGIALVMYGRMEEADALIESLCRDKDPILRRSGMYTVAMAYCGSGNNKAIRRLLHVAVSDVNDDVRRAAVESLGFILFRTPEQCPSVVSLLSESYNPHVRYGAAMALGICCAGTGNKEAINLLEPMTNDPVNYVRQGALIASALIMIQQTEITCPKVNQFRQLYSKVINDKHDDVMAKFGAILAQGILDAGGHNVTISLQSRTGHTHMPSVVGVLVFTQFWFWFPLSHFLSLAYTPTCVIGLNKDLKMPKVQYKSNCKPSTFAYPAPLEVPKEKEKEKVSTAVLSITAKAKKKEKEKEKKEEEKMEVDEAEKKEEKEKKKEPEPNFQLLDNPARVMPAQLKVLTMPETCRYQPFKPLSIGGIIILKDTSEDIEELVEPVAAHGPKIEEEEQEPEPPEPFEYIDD

pKd: 2.67
Substance: mono-ubiquitin (from UniProt P0CG48 1-76) (natural protein; other documents disagree on this pair)

— doi:10.1101/2020.12.22.423932
